Laboratory results as given in patent US20070178572A1, “Protein crystal structure” (priority 2003, published 2007).
Residue numbers refer to the chain shown, from its start. Read-outs that look alike come from different tables or passages of the source.

B1: SET 7/9: human enzyme that specifically methylates lysine-4 of histone H3 (protein, UniProt Q8WTS6 1-366, looked up)
Histone-lysine …: MDSDDEMVEEAVEGHLDDDGLPHGFCTVTYSSTDRFEGNFVHGEKNGRGKFFFFDGSTLEGYYVDDALQGQGVYTYEDGGVLQGTYVDGELNGPAQEYDTDGRLIFKGQYKDNIRHGVCWIYYPDGGSLVGEVNEDGEMTGEKIAYVYPDERTALYGKFIDGEMIEGKLATLMSTEEGRPHFELMPGNSVYHFDKSTSSCISTNALLPDPYESERVYVAESLISSAGEGLFSKVAVGPNTVMSFYNGVRITHQEVDSRDWALNGNTLSLDEETVIDVPEPYNHVSKYCASLGHKANHSFTPNCIYDMFVHPRFGPIKCIRTLRAVEADEELTVAYGYDHSPPGKSGPEAPEWYQVELKAFQATQQK
B2: Y245>A: SET 7/9 histone methyltransferase with point mutation of Tyr-245 to alanine (protein, UniProt Q8WTS6 1-366, looked up, variant Y245A)
Histone-lysine …: B1 Histone-lysine … with Y245A

Legend:
[1] = test system: H3 20mer peptide; assay: Analytical analysis of histone methylation (HPLC separation and MALDI of reaction products); type: biochemical, human; conditions: unmodified peptide and AdoMet, reaction driven essentially to completion
Experimental: The histone methyltransferase assay for analytical purposes was carried out under slightly different conditions than those described in Example 1.2. For analytical purposes the reaction was performed at 37° C. in 50 mM Tris-HCl, pH 8.0, 100 mM NaCl, 1 mM DTT, with 300 μM AdoMet (Fluka, Switzerland), 100 μM H3 20mer peptide ([…]), and with 1.5 μM enzyme. At desired time intervals an aliquot of the reaction was removed and quenched in 8 M urea and acidified with glacial acetic acid. The reaction products were separated by reverse phase HPLC (Jasco (UK) Ltd) on a Zorbax 300SB-C18 column (Rockland Technologies, Inc. USA) using a gradient from 0 to 40% acetonitrile in the presence of 0.05% trifluoroacetic acid at 55° C. Fractions from the peptide peak were analysed using a Reflex III MALDI time-of-flight mass spectrometer (Bruker Daltonik, GmbH, Germany) to obtain positive ion mass spectra.
The present inventors have further analysed the methylation reaction. Reaction mixtures were set up with unmodified peptide and AdoMet and conditions found where the reaction was driven essentially to completion. […] The reason for SET 7/9 acting as a mono-methyltransferase is readily apparent from the crystal structure now presented. The peptide used for crystallization was synthesised using mono-methylated lysine at position 4. […]

[2] = test system: histone H3 peptide; conditions: previously reported (Wilson et al, 2002); cited from earlier work
[3] = test system: histone H3 peptide; assay: HMTase activity measurements (histone methyltransferase assay, [methyl-3H] AdoMet, scintillation counting); type: biochemical, human
Experimental: The methyltransferase activity of SET7/9 and the various mutant constructs described in the text were determined in a reaction volume of 20 μl containing 3 μM AdoMet supplemented with [methyl-^3H] AdoMet (4 μCi) (Amersham Biosciences, UK) and […] purified methylase in reaction buffer (50 mM Tris pH 8.5, 100 mm NaCl, 1 mM EDTA, 1 mM DTT) with 50 μM histone peptide (see below). Following incubation at 37° C. for 60 min the reaction was vacuum blotted onto membrane (Hybond-C, Amersham Biosciences, UK) washed and activity measured by scintillation counting.

Row | Molecule | methylation state of reaction product [1] | HMTase activity [2] | HMTase activity ([3]; mono-methylated Lys-4 substrate) | HMTase activity ([3]; unmodified lysine substrate)
1 | B1 | only mono-methylated peptide |  |  | 
2 | B2 |  | dramatic reduction in HMTase activity | substantial activity | greatly reduced activity
